In publication doi:10.1101/2025.10.04.680434 one finds other data, which are given here for 1 substance.

This assay concerns the target human 40S ribosomal subunit (human) (UniProt P62269). The assay is described as follows: cryo-EM structure.

In the case of “human eIF3 (from UniProt P55884 1-814; Q99613 1-913; O15371 1-548; O75821 1-320; Q13347 1-325) (complex)”, the other was 40%.
